Measured values from EP1327680B1 (CHUGAI SEIYAKU KABUSHIKI KAISHA, dated 2008).

T1: human TPO receptor (MPL) expressed on Ba/F3 cells (human, UniProt P40238 26-635)
T1 sequence (looked up): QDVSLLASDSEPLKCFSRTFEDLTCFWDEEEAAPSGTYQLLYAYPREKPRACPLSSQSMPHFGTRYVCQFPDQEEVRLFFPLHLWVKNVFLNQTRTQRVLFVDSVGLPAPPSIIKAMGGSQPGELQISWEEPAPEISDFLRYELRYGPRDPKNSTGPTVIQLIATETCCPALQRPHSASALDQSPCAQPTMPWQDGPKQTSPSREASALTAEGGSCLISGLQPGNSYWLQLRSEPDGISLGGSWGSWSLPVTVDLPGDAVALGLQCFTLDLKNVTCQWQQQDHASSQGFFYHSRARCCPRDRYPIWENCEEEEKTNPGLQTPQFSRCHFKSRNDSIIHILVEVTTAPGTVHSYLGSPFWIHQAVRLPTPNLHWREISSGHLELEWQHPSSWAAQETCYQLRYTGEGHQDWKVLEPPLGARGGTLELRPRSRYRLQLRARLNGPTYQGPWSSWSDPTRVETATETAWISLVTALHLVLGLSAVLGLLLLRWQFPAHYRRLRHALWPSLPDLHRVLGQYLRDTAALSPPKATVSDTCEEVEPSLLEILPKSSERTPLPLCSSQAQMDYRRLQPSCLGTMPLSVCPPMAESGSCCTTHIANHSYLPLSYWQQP

B1: reconstructed 12B5 single chain Fv (sc12B5), culture supernatant of COS-7 cells (scFv)
scFv: QVQLVQSGGGLVRPGGSLSLSCAVSGITLRTYGMHWVRQAPGKGLEWVAGISFDGRSEYYADSVQGRFTISRDSSKNTLYLQMNSLRAEDTAVYYCARGAHYGFDIWGQGTMVTVSSGGGGSGGGGSGGGGSDIQMTQSPSTLSASIGDRVTITCRASEGIYHWLAWYQQKPGKAPKLLIYKASSLASGAPSRFSGSGSGTDFTLTISSLQPDDFATYYCQQYSNYPLTFGGGTKLEIKDYKDDDDK
B2: sc12B5 monomer (scFv)
scFv: B1 scFv
B3: sc12B5 dimer (scFv)
scFv: B1 scFv
B4: antibody 12B5 (IgG) (antibody, V domains shown)
VH: QVQLVQSGGGLVRPGGSLSLSCAVSGITLRTYGMHWVRQAPGKGLEWVAGISFDGRSEYYADSVQGRFTISRDSSKNTLYLQMNSLRAEDTAVYYCARGAHYGFDIWGQGTMVTVSS
VL: DIQMTQSPSTLSASIGDRVTITCRASEGIYHWLAWYQQKPGKAPKLLIYKASSLASGAPSRFSGSGSGTDFTLTISSLQPDDFATYYCQQYSNYPLTFGGGTKLEIK
B5: 12B5Fab fragment (Fab, V domains shown)
VH: B4 VH
VL: B4 VL

What was measured:
[1] = biological target: human TPO receptor (MPL) expressed on Ba/F3 cells (human) (UniProt P40238); test: cell-based or functional assay
[2] = biological target: T1, human TPO receptor (MPL) expressed on …; test: cell-based or functional assay

Row | Molecule | ED50, agonist activity, proliferation of BaF/mpl cells (WST-8) [1] [nM] | ED50, TPO-like agonist activity, proliferation of BaF/mpl cells (WST-8) [2] [nM] | agonist activity, fold against monovalent sc12B5 [2] [fold]
1 | human TPO (R&D Systems) (from UniProt P40225 22-353) (ligand) | 0.027 |  | 
2 | B1 |  | 75 | 
3 | B2 |  | 4440 | 
4 | B3 |  | 10.1 | ~400
5 | B4 |  | 29 | 
6 | B5 |  | 34700 | 
